From publication PMC2917185

Tests used:
[1] = target: T1, LHCP (light-harvesting chlorophyll a/b binding protein), fluorescein-labeled, P07371; test: fluorescence polarisation; details: remark: other sources report otherwise
[2] = target: T1, LHCP (light-harvesting chlorophyll a/b …); test: fluorescence polarisation; details: remark: other sources report otherwise; remark: listed apart in the source

B1: cpSRP43 (mature), O22265 57-373 (natural protein)
chain: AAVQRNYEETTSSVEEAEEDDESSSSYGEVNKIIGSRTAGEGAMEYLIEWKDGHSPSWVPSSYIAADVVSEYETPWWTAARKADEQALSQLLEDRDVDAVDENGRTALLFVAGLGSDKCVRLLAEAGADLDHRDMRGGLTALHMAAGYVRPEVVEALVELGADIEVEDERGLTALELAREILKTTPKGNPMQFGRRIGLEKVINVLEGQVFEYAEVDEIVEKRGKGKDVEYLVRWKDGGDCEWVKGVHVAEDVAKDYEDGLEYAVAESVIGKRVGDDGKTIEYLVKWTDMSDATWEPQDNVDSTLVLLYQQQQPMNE
With B1 the Kd [1] was 296 nM and the Kd [2] was 138 nM.
